Experimental data published in article PMC4353693.

What was measured:
[1] = biological target: actin binding domain of plectin isoform 1a (P1aABD); experiment: ITC
[2] = biological target: actin binding domain of plectin isoform 1a (P1aABD); experiment: SAXS

B1: first two FnIII domains of integrin β4 (β4Fn12; 1126–1355) (domain or fragment)
chain: DLGAPQNPNAKAAGSRKIHFNWLPPSGKPMGYRVKYWIQGDSESEAHLLDSKVPSVELTNLYPYCDYEMKVCAYGAQGEGPYSSLVSCRTHQEVPSEPGRLAFNVVSSTVTQLSWAEPAETNGEITAYEVCYGLVNDDNRPIGPMKKVLVDNPKNRMLLIENLRESQPYRYTVKARNGAGWGPEREAIINLATQPKRPMSIPIIPDIPIVDAQSGEDYDSFLMYSDDVLR
Work on B1 yielded a Kd [1] of 41.7 µM, a dH [1] of 3.69 kcal/mol and a volume fraction of the complex in solution (SAXS, OLIGOMER) [2] of 54%.
